# Laboratory results taken from US20130058955A1 (Genentech, published 2013).
# Where a chain is given by its changes, count along the chain named. Values joined by “and” are separate entries in the source; they are usually repeats but may differ in a detail not shown here. Identical values can stand only once.
# B1: 3F5, Fab displayed on phage (Fab, V domains shown)
# VH: EVQLVESGGGLVQPGGSLRLSCAASGFTFSNTYISWVRQAPGKGLEWVASITPSSGQTDYADSVKGRFTISADTSKNTAYLQMNSLRAEDTAVYYCARTWLLRWVMDYWGQGTLVTVSS
# VL: DIQMTQSPSSLSASVGDRVTITCRASQDVSTAVAWYQQKPGKAPKLLIYSASFLYSGVPSRFSGSGSGTDFTLTISSLQPEDFATYYCQQSYTTPPTFGQGTKVEIK
# notes: Monovalent Fab on M13 phage
# B2: 2H5/3E4 double mutant, Fab displayed on phage (Fab, name in Kabat numbering, V domains shown)
# VH: B1 VH with I34M, Q57S
# VL: B1 VL with T94N
# B3: 2C11/3E4 double mutant, Fab displayed on phage (Fab, name in Kabat numbering, V domains shown)
# VH: B1 VH with I34M, Q57S
# VL: B1 VL with T94Q
# B4: 2C11/4G7 double mutant, Fab displayed on phage (Fab, name in Kabat numbering, V domains shown)
# VH: B1 VH with Q57S, Y108G
# VL: B1 VL with T94Q
# B5: 1F11/4G7 double mutant, Fab displayed on phage (Fab, name in Kabat numbering, V domains shown)
# VH: B1 VH with Q57S, Y108G
# VL: B1 VL with S52K
# B6: 2H5, Fab displayed on phage (Fab, name in Kabat numbering, V domains shown)
# VH: B1 VH with Q57S
# VL: B1 VL with T94N
# notes: Light chain mutant of 1E3 (CDR L3); Monovalent Fab on M13 phage
# B7: 3E4, Fab displayed on phage (Fab, name in Kabat numbering, V domains shown)
# VH: B1 VH with I34M, Q57S
# VL: B1 VL
# notes: Heavy chain mutant of 1E3 (CDR H1); Monovalent Fab on M13 phage
# B8: 4G7, Fab displayed on phage (Fab, name in Kabat numbering, V domains shown)
# VH: B1 VH with Q57S, Y108G
# VL: B1 VL
# notes: Heavy chain mutant of 1E3 (H3); Monovalent Fab on M13 phage
# B9: 2C11, Fab displayed on phage (Fab, name in Kabat numbering, V domains shown)
# VH: B1 VH with Q57S
# VL: B1 VL with T94Q
# notes: as for B6
# B10: 2H5/4G7 double mutant, Fab displayed on phage (Fab, name in Kabat numbering, V domains shown)
# VH: B1 VH with Q57S, Y108G
# VL: B1 VL with T94N
# B11: 1F11, Fab displayed on phage (Fab, V domains shown)
# VH: B1 VH with Q57S
# VL: B1 VL with S52K
# notes: Monovalent Fab on M13 phage
# B12: 1F11/3E4 double mutant, Fab displayed on phage (Fab, name in Kabat numbering, V domains shown)
# VH: B1 VH with I34M, Q57S
# VL: B1 VL with S52K
# Legend:
# [1] = target: T1, linear diubiquitin (Boston Biochem) (human, UniProt P0CG48 1-152); test: phage IC50 competition ELISA with soluble linear diubiquitin
# T1 construct: Bought product
# Procedure: An initial titer ELISA was done to determine the amount of phage at which a signal of OD₄₅₀=0.5 would be achieved. […] The coated plates were blocked with 200 μL/well of 2.5% milk in PBST for one hour at 25° C. with shaking. Twelve two-fold serial dilutions of the phage were made in 2.5% milk in PBST from OD₂₆₈=4.0 to OD₂₆₈=0.002. After one hour, the blocking buffer was dumped off of the plate and 100 μL/well of each phage dilution was added and incubated at 25° C. for 15 minutes with shaking. The plate was then washed six times with PBST using a plate washer. A 1:5000 dilution of an anti-M13 phage-HRP-conjugated secondary antibody (GE Healthcare) in PBST was used for detection of phage binding. 100 μL/well of the secondary dilution was added and the plate was incubated at 25° C. for 30 minutes with shaking. The plate was then washed 12 times with PBST using a plate washer and twice with PBS manually. Bound secondary antibody was detected using a TMB substrate (KPL) followed by quenching with an equal volume of 1 M phosphoric acid.
# [2] = target: T2, K11-linked diubiquitin (Genentech) (human, UniProt P0CG48 1-76, isopeptide bond between the C-terminus of one ubiquitin and Lys11 of the other); test: phage specificity ELISA, 1 ug/mL coated antigen, anti-M13-HRP
# T2 construct: also called K11 diUb
# Procedure: (§1) The panel of ubiquitin proteins was immobilized on 96-well Maxisorb immunoplates (NUNC) (see FIGS. 7A and 7B). Plates were coated at 4° C. overnight with 1 μg/mL of each protein in 50 mM sodium carbonate buffer, pH 9.6. The coated plates were blocked with 200 μL/well of 2.5% milk in PBST for one hour at 25° C. with shaking. Six two-fold serial dilutions of phage from OD₂₆₈=1.0 to OD₂₆₈=0.03 were made in 2.5% milk in PBST. After one hour, the blocking buffer was dumped off of the plate and 100 μL of the phage serial dilutions was added. Plates were incubated at 25° C. for one hour with shaking. The plate was then washed six times with PBST using a plate washer. A 1:5,000 dilution of an anti-M13 horseradish peroxidase (HRP)-conjugated secondary antibody (GE Healthcare) in PBST was used for detection of phage binding. […] The plate was then washed six times with PBST using a plate washer and twice manually with PBS. Bound secondary antibody was detected using a TMB substrate (KPL) followed by quenching with an equal volume of 1 M phosphoric acid. The absorbance was read at 450 nm.
# [3] = target: T3, monoubiquitin (Boston Biochem) (human, UniProt P0CG48 1-76); test: as above
# T3 construct: Bought product
# Procedure: as §1
# [4] = target: T4, K48-linked diubiquitin (Boston Biochem) (human, UniProt P0CG48 1-76, isopeptide bond between the C-terminus of one ubiquitin and Lys48 of the other); test: as above
# T4 construct: Bought product; also called K48 diUb
# Procedure: as §1
Binder,IC50 [1],binding result [2],binding result [3],binding result [4]
B1,12 nM and 9 nM and 13 nM,no binding (tested: phage OD268 1),no binding (tested: phage OD268 1),no binding (tested: phage OD268 1)
B2,26 nM,,,
B3,24 nM,,,
B4,31 nM,,,
B5,13 nM,,,
B6,17 nM,no binding (tested: phage OD268 1),no binding (tested: phage OD268 1),no binding (tested: phage OD268 1)
B7,44 nM and 33 nM and 26 nM,no binding (tested: phage OD268 1),no binding (tested: phage OD268 1),no binding (tested: phage OD268 1)
B8,23 nM and 16 nM and 19 nM,no binding (tested: phage OD268 1),no binding (tested: phage OD268 1),no binding (tested: phage OD268 1)
B9,20 nM,no binding (tested: phage OD268 1),no binding (tested: phage OD268 1),no binding (tested: phage OD268 1)
B10,23 nM,,,
B11,14 nM,,,
B12,12 nM,,,
